Results reported in publication PMC2718698, “The TCL1A Oncoprotein Interacts Directly with the NF-κB Inhibitor IκB” (PLoS ONE, 2009).
Blank lines part the entries; values can stand above or below the molecule they belong to.

How the values were obtained:
[1] = biological target: all-cysteine-to-serine (7CS) mutant of the IκBα ankyrin domain, IκB(67–302)7CS (human) (UniProt P25963); assay: ITC; TCL1A (470 µM) injected into IκB_ank^7CS (45 µM) in the cell; 20°C; 10 mM Tris pH 7.4, 300 mM NaCl, 1 mM β-mercapto ethanol
[2] = biological target: T1, T cell leukaemia/lymphoma 1A (TCL1A), purified recombinant human protein (human, UniProt P56279 1-114); assay: ITC; AKT_PH (490 µM) injected into TCL1A (40 µM) or into equimolar TCL1A and IκB_ank^7CS in the cell; 20°C; 20 mM sodium phosphate pH 7.1, 300 mM NaCl, 2 mM EGTA, 1 mM β-mercapto ethanol; conditions: both partners purified
T1 construct: TCL1A, human; 7 N-terminal residues are not seen in the crystal structure 1JSG
T1 sequence (P56279 whole entry): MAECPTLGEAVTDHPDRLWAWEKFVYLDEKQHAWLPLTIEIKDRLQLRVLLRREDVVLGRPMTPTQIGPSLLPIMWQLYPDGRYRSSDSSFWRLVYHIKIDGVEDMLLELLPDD

[3] = biological target: 1:1 TCL1A:IκB_ank^7CS complex (human) (UniProt P56279); assay: as above

- dH [1]: -53.2 kJ/mol
- stoichiometry N [1]: 0.9
Molecule: T cell leukaemia/lymphoma 1A (TCL1A), purified recombinant human protein (from UniProt P56279 1-114) (natural protein)

- dH [2]: -60.9 ± 2.5 kJ/mol
- stoichiometry N [2]: 0.7 ± 0.3
- Kd [3]: 5.1 µM
- dH [3]: -39 kJ/mol
- stoichiometry N [3]: 0.7
B1: AKTβ PH domain, human AKTβ PH(1–118) (domain or fragment, UniProt P31751 1-118, looked up)
chain: MNEVSVIKEGWLHKRGEYIKTWRPRYFLLKSDGSFIGYKERPEAPDQTLPPLNNFSVAECQLMKTERPRPNTFVIRCLQWTTVIERTFHVDSPDEREEWMRAIQMVANSLKQRAPGED
